Results as given in patent publication US20020099172A1.

Biological target: Xwnt-8 (Xenopus) (UniProt P28026)
Assay: cell-based or functional assay

Sequence of UniProt P28026 (P28026 23-358 limits assumed): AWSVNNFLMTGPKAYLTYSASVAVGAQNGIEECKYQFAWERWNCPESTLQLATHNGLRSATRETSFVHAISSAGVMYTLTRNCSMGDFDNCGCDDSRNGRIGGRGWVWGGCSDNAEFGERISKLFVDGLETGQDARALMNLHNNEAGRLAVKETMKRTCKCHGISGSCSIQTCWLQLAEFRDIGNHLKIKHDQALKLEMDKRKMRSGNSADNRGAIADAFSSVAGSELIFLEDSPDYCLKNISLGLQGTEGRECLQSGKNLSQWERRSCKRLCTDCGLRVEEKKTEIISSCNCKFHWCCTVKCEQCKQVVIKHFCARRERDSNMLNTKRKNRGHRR

frzb-1 (Xenopus, expressed from injected mRNA)
embryos with secondary axes after injection of frzb-1 mRNA (animal blastomeres) and Xwnt-8 mRNA (vegetal-ventral blastomere); Xwnt-8 alone gave complete secondary axes in 67% of the embryos (n=53): 14%
